Data reported in patent publication US20230416410A1 (ZOETIS SERVICES, published 2023).

Molecular target: T1, CTLA4 Fc bIgG1aWinSS (canine; bovine, UniProt Q9XSI1 36-161, limits assumed)
T1 construct: No linker
T1 sequence: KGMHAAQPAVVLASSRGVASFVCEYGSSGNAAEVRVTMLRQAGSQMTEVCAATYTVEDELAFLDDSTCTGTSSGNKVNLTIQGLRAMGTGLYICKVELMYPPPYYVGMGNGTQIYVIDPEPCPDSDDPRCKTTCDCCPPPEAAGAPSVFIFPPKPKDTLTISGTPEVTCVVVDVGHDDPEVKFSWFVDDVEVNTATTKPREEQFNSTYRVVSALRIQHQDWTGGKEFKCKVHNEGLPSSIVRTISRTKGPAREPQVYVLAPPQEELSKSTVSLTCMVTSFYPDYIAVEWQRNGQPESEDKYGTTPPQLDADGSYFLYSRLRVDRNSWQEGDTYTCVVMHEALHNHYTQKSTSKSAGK
Experiment: SPR Biacore, biotinylated receptor on SA sensor, pH 7.4, 15 C

- Kd: 52.5 nM
B1: recombinant bovine FcgR2 (receptor)
chain: KPDLPKAVVTIQPAWINVLREDHVTLTCQGTSFSAGNLTTWFHNGSSIHTQKQPSYSFRAGSNDSGSYRCQREQTSLSDPVHLDVISDWLLLQTPSLVFQEGEPIMLRCHSWRNQPLNKITFYQDRKSKIFSYQRTNFSIPRANLSHSGQYHCTAFIGKMLHSSQPVNITVQESSSSGPSSMTHHHHHHAGLNDIFEAQKIEWHE
modifications: biotin on the BAP tag (BirA)
notes: also called bFcgR2; bFcgRII
